From paper PMC8754640

Columns and labels:
[1] = target: His-PABP WT-Flag (Flag-PABP) (UniProt P11940 2-636); assay: EMSA
[2] = target: His-PABP 4EA-Flag (Flag-PABP 4EA) (UniProt P11940 2-636, E178A;E180A;E182A;E189A); assay: EMSA
His-PABP 4EA-Flag (Flag-PABP 4EA), sequence (P11940 2-636 E178A/E180A/E182A/E189A): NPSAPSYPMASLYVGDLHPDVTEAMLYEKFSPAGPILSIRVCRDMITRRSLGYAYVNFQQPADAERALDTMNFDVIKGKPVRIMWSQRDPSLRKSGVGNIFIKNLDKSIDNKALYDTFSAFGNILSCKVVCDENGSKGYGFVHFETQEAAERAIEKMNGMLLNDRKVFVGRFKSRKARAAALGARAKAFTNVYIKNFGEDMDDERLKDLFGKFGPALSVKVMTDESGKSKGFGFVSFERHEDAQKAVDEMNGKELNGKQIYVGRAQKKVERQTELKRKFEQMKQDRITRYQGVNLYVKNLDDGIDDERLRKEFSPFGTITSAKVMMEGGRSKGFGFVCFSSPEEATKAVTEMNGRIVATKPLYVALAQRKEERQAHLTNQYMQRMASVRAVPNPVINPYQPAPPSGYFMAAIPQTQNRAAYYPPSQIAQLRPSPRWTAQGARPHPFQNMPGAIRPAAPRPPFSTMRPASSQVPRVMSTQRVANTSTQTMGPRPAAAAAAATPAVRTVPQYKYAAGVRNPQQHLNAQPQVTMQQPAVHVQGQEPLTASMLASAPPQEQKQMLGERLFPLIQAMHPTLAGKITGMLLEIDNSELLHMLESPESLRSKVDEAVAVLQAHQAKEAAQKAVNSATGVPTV

His-PABP WT-Flag (Flag-PABP), sequence (P11940 2-636): as the sequence (P11940 2-636 E178A/E180A/E182A/E189A) above, with A177E, A179E, A181E, A188E counted along it

Binder AAAAAAAAAAAAAAAAAAAAAAAAA (ssRNA) [poly(A)25] has a Kd [1] of roughly 0.5 nM and a Kd [2] of roughly 2.2 nM.
